The labels stand for the following.
B1: Mutant 3, Fab displayed on yeast (CDRH2-CDRH3 combinatorial library) (Fab, V domains shown)
VH: EVQLVESGGGLVQPGRSLRLSCAASGFTFDDYAMHWVRQAPGKGLEWVGAINWNGGHHDYADSVEGRFTISRDNAKNSLYLQMNSLRAEDTAVYYCAKTTYLPTASSLDYWGQGTLVTVSS
VL: not shown
notes: same variable domains as the soluble Mutant 3 Fab; see its note
B2: Mutant 8, Fab displayed on yeast (CDRH2-CDRH3 combinatorial library) (Fab, V domains shown)
VH: B1 VH with H58R, V93L
VL: not shown
notes: same variable domains as the soluble Mutant 8 Fab; see its note
B3: Mutant 7, Fab displayed on yeast (CDRH2-CDRH3 combinatorial library) (Fab, V domains shown)
VH: B1 VH with H58R, T99A, T100H
VL: not shown
notes: same variable domains as the soluble Mutant 7 Fab; see its note
B4: Mutant 6, Fab displayed on yeast (CDRH2-CDRH3 combinatorial library) (Fab, V domains shown)
VH: B1 VH with H58R, T100N
VL: not shown
notes: same variable domains as the soluble Mutant 6 Fab; see its note
B5: Mutant 2, Fab displayed on yeast (CDRH2-CDRH3 combinatorial library) (Fab, V domains shown)
VH: B1 VH with A50T, H58S
VL: not shown
notes: same variable domains as the soluble Mutant 2 Fab; see its note
B6: Mutant 4, Fab displayed on yeast (CDRH2-CDRH3 combinatorial library) (Fab, V domains shown)
VH: B1 VH with G55S
VL: not shown
notes: same variable domains as the soluble Mutant 4 Fab; see its note
B7: Mutant 5, Fab displayed on yeast (CDRH2-CDRH3 combinatorial library) (Fab, V domains shown)
VH: B1 VH with A50D, N52S, H58T
VL: not shown
notes: same variable domains as the soluble Mutant 5 Fab; see its note
B8: Mutant 1, Fab displayed on yeast (CDRH2-CDRH3 combinatorial library) (Fab, V domains shown)
VH: B1 VH with H58R, T99S, T100Q
VL: not shown
notes: same variable domains as the soluble Mutant 1 Fab; see its note
B9: CDRH2 library mutant AAIAWNGGHH (Fab, V domains shown)
VH: B1 VH with G49A, N52A, T99V, T100S, P103S
VL: not shown
B10: CDRH2 library mutant AAIAWNGGHR (Fab, V domains shown)
VH: B1 VH with G49A, N52A, H58R, T99V, T100S, P103S
VL: not shown
B11: CDRH2 library mutant SSIAWNGGHW (Fab, V domains shown)
VH: B1 VH with G49S, A50S, N52A, H58W, T99V, T100S, P103S
VL: not shown
B12: CDRH2 library mutant AAITWNGGHR (Fab, V domains shown)
VH: B1 VH with G49A, N52T, H58R, T99V, T100S, P103S
VL: not shown
B13: CDRH2 library mutant GAISWNGGHR (Fab, V domains shown)
VH: B1 VH with N52S, H58R, T99V, T100S, P103S
VL: not shown
B14: CDRH2 library mutant GAINWNGGHT (Fab, V domains shown)
VH: B1 VH with H58T, T99V, T100S, P103S
VL: not shown
B15: CDRH2 library mutant SAISWNGGHT (Fab, V domains shown)
VH: B1 VH with G49S, N52S, H58T, T99V, T100S, P103S
VL: not shown
B16: CDRH2 library mutant GAITWNGGHR (Fab, V domains shown)
VH: B1 VH with N52T, H58R, T99V, T100S, P103S
VL: not shown
B17: CDRH2 library mutant AAISWNGGHA (Fab, V domains shown)
VH: B1 VH with G49A, N52S, H58A, T99V, T100S, P103S
VL: not shown
B18: CDRH2 library mutant AAISWNGGHH (Fab, V domains shown)
VH: B1 VH with G49A, N52S, T99V, T100S, P103S
VL: not shown
B19: CDRH2 library mutant SAISWNGGHQ (Fab, V domains shown)
VH: B1 VH with G49S, N52S, H58Q, T99V, T100S, P103S
VL: not shown
B20: CDRH2 library mutant AAITWNGGHT (Fab, V domains shown)
VH: B1 VH with G49A, N52T, H58T, T99V, T100S, P103S
VL: not shown
B21: CDRH2 library mutant GAISWNGGHH (Fab, V domains shown)
VH: B1 VH with N52S, T99V, T100S, P103S
VL: not shown
B22: CDRH2 library mutant AAIAWNGGHQ (Fab, V domains shown)
VH: B1 VH with G49A, N52A, H58Q, T99V, T100S, P103S
VL: not shown
B23: CDRH2 library mutant AAISWNGGHQ (Fab, V domains shown)
VH: B1 VH with G49A, N52S, H58Q, T99V, T100S, P103S
VL: not shown
B24: CDRH2 library mutant AAIAWNGGHT (Fab, V domains shown)
VH: B1 VH with G49A, N52A, H58T, T99V, T100S, P103S
VL: not shown
B25: CDRH2 library mutant SAISWNGGHH (Fab, V domains shown)
VH: B1 VH with G49S, N52S, T99V, T100S, P103S
VL: not shown
B26: CDRH2 library mutant GAISWNGGHT (Fab, V domains shown)
VH: B1 VH with N52S, H58T, T99V, T100S, P103S
VL: not shown
B27: CDRH2 library mutant AAISWNGGHT (Fab, V domains shown)
VH: B1 VH with G49A, N52S, H58T, T99V, T100S, P103S
VL: not shown
B28: CDRH2 library mutant GAINWNGGHR (Fab, V domains shown)
VH: B1 VH with H58R, T99V, T100S, P103S
VL: not shown
B29: CDRH2 library mutant AAINWNGGHH (Fab, V domains shown)
VH: B1 VH with G49A, T99V, T100S, P103S
VL: not shown
B30: CDRH2 library mutant AAISWNGGHS (Fab, V domains shown)
VH: B1 VH with G49A, N52S, H58S, T99V, T100S, P103S
VL: not shown
B31: CDRH2 library mutant AAIAWNGGHS (Fab, V domains shown)
VH: B1 VH with G49A, N52A, H58S, T99V, T100S, P103S
VL: not shown
B32: CDRH2 library mutant SAINWNGGHR (Fab, V domains shown)
VH: B1 VH with G49S, H58R, T99V, T100S, P103S
VL: not shown
B33: CDRH2 library mutant AAINWNSGHR (Fab, V domains shown)
VH: B1 VH with G49A, G55S, H58R, T99V, T100S, P103S
VL: not shown
B34: CDRH2 library mutant AAISWNGGHR (Fab, V domains shown)
VH: B1 VH with G49A, N52S, H58R, T99V, T100S, P103S
VL: not shown
B35: CDRH2 library mutant SAISWNGGHR (Fab, V domains shown)
VH: B1 VH with G49S, N52S, H58R, T99V, T100S, P103S
VL: not shown
B36: CDRH2 library mutant AAINWNGGHR (Fab, V domains shown)
VH: B1 VH with G49A, H58R, T99V, T100S, P103S
VL: not shown
B37: CDRH2 library mutant AAINWNSGHQ (Fab, V domains shown)
VH: B1 VH with G49A, G55S, H58Q, T99V, T100S, P103S
VL: not shown
B38: Mutant 5, Fab format (Fab, V domains shown)
VH: B1 VH with A50D, N52S, H58T
VL: not shown
notes: Soluble Fab as for Mutant 1; also called mutation 5
B39: CDRH3 library mutant VYYCAKVKYLPA (Fab, V domains shown)
VH: B1 VH with G49S, N52T, G55S, H58I, T99V, T100K, T104A
VL: not shown
B40: CDRH3 library mutant VYYCAKVTYTPS (Fab, V domains shown)
VH: B1 VH with G49S, N52T, G55S, H58I, T99V, L102T, T104S
VL: not shown
B41: CDRH3 library mutant VYYCAKVAYLPS (Fab, V domains shown)
VH: B1 VH with G49S, N52T, G55S, H58I, T99V, T100A, T104S
VL: not shown
B42: CDRH3 library mutant VYYCAKVTYLPS (Fab, V domains shown)
VH: B1 VH with G49S, N52T, G55S, H58I, T99V, T104S
VL: not shown
B43: CDRH3 library mutant VYYCAKVKYLPP (Fab, V domains shown)
VH: B1 VH with G49S, N52T, G55S, H58I, T99V, T100K, T104P
VL: not shown
B44: CDRH3 library mutant VYYCAKVKYLPS (Fab, V domains shown)
VH: B1 VH with G49S, N52T, G55S, H58I, T99V, T100K, T104S
VL: not shown
B45: CDRH3 library mutant VYYCAKTTYLPT (Fab, V domains shown)
VH: B1 VH with G49S, N52T, G55S, H58I
VL: not shown

Numbering of substitutions follows the chain as printed.

In one experiment the target is T1, biotinylated TNF alpha (human (definition in paragraph 32)); the …, UniProt P01375 77-233, biotinylated (site not stated)).
T1 construct: Used for FACS sorting of yeast libraries and immobilised on streptavidin sensors for BLI; also called TNFα; Tumor Necrosis Factor Alpha
T1 sequence (P01375 77-233 limits assumed): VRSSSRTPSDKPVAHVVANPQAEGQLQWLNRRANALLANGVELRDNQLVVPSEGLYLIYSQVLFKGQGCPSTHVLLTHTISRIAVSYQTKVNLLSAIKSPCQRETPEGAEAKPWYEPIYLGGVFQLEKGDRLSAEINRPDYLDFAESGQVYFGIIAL
Kind of experiment: yeast display FACS sorting on biotinylated TNF alpha, NGS enrichment, CDRH2-CDRH3 library.
B1 registered an Enrichment of 111000.

As for B2, the Enrichment stood at 238000.

Molecule B3 yielded an Enrichment of 59400.

For B4, the Enrichment worked out at 238000.

As to B5, the Enrichment was 1.47e+06.

For B6, the Enrichment came to 186000.

On to B7, for which the Enrichment came out at 512000.

B8 came in with an Enrichment of 217000.

The target in a further experiment is T1, biotinylated TNF alpha. Kind of experiment: yeast display FACS sorting on biotinylated TNF alpha, NGS enrichment, CDRH2 library.
In turn, B9 showed an Enrichment of 119.

Turning to B10, the Enrichment came out at 197.

As for B11, the Enrichment amounted to 128.

B12 showed an Enrichment of 213.

In turn, B13 showed an Enrichment of 279.

As to B14, the Enrichment was 62.

As to B15, the Enrichment turned out to be 100.

Consider B16, for which the Enrichment was found to be 64.

B17 had an Enrichment of 75.

In turn, B18 yielded an Enrichment of 164.

With B19, the Enrichment is 104.

In turn, B20 displayed an Enrichment of 91.

As to B21, the Enrichment amounted to 66.

B22 registered an Enrichment of 109.

In turn, B23 returned an Enrichment of 192.

B24: the Enrichment worked out at 144.

For the molecule B25, the Enrichment was determined as 87.

In the case of B26, the Enrichment was 133.

B27 returned an Enrichment of 193.

In turn, B28 returned an Enrichment of 222.

For B29, the Enrichment came to 132.

B30 gave an Enrichment of 82.

Regarding B31, the Enrichment was 93.

The molecule B32 showed an Enrichment of 79.

On to B33, for which the Enrichment worked out at 122.

As for B34, the Enrichment was 382.

Turning to B35, the Enrichment was 207.

In turn, B36 gave an Enrichment of 417.

In turn, B37 showed an Enrichment of 105.

The next experiment deals with T1, biotinylated TNF alpha. Kind of experiment: BLI (Octet Red96), Fab in solution, biotinylated TNF alpha on streptavidin sensors, 1:1 global fit. On the procedure:
After saturation the sensors in a blocking solution containing 10 μg/mL biotin (Sigma-Aldrich, Saint-Louis, United States), the association and dissociation are measured over 20 and 40 minutes respectively. […] During the analysis, the reference is subtracted from each curve and a 1:1 global Langmuir model is applied in order to get the affinity parameters.
Background: Biolayer interferometry detects binding as a change in optical thickness at a sensor tip.
B38 gave a Kd of 9 pM.

The next experiment deals with T1, biotinylated TNF alpha. Kind of experiment: yeast display MACS and FACS sorting on biotinylated TNF alpha, NGS enrichment, CDRH3 library. From the text:
The second selection phase consists of selecting the mutant by the dissociation speed thereof.
The selection of DMS libraries was done in a single step by FACS on an ARIA III device (Becton Dickinson, Franklin Lakes, United States). […] After washing the cells with PBS 0.1% BSA, they were marked by using an APC coupled antibody directed against the OK domain (Thermo Fisher Scientific, Waltham, United States; dilution 1:100) and a PE coupled streptavidin (Thermo Fisher Scientific, Waltham, United States; dilution 1:100). The selection of libraries was done by means of rectangular sorting window containing 5% of the clones of interest according to the optimal parameters described by Kowalski et al. PLoS One 10, 1-23 (2015)). The selection of de-immunization libraries was done in several steps. […] The libraries underwent different steps of sorting by FACS.
Molecule B39 displayed an Enrichment of 81400.

For B40, the Enrichment stood at 99200.

With B41, the Enrichment came out at 62000.

The molecule B42 registered an Enrichment of 241000.

For the molecule B43, the Enrichment is 61600.

B44 registered an Enrichment of 71900.

Regarding B45, the Enrichment turned out to be 1.29e+06.

The Kd is a measure of binding affinity in units of concentration.

(Values after US20230142800A1 (COMMISSARIAT A L ENERGIE ATOMIQUE ET AUX ENERGIES …, published 2023).)
